Experimental findings from patent US10494417B2, “Peptide inhibitors of BCR-ABL oligomerization” (University of Utah Research Foundation, priority 2014, dated 2019) are described below.

Changes are numbered by the printed parent chain. Numbers in names are those of the source. Where “and” joins values, the source holds several entries; their conditions need not be identical. Equal values may be shown once. Entries after “also recorded” stand apart in the source; their conditions may differ.

For series [1], the system named is Ba/F3 cells expressing native BCR-ABL1. Put plainly: Proliferation of transfected Ba/F3 cells with native p210 BCR-ABL1 (MTS assay). It counts as cell-based, mouse. As to conditions: CCmut3 vs EV; for reduction of proliferation: 96 h. On the procedure:
(§1) Stable recombinant Ba/F3 cells transduced with wild type p210 BCR-ABL1 (Daley, G. Q., et al. (1991) Proc. Natl. Acad. Sci. U.S.A. 88, 11335-11338), the kinase domain mutants p210^T315I p210^[…], or the compound mutant p210^E255V/T315I were as previously described (La Rosee, P., et al. (2002) Cancer Res. 62, 7149-7153; O'Hare, T., et al. (2004) Blood 104, 2532-2539). These cells were cultured in RPMI with 10% FBS, 1% penicillin, streptomycin, glutamine, and 0.1% gentamycin (RPMI1640). Additionally 0.1% MycoZap™ (Lonza Bio, Basel, Switzerland) was added to prevent mycoplasma contamination. The non-transduced parental Ba/F3 cell line was grown in RPMI1640 supplemented with 20% WEHI-3B conditioned medium as a source of murine IL-3 (Dexter, T. M., et al. (1980) J. Exp. Med. 152, 1036-1047). Ba/F3 cells were transfected with plasmid DNA using the Amaxa nucleofection system (Lonza Bio), following the manufacturer's instructions. Cells were sorted on a BD FACSAria cytometer (BD Biosciences, San Jose, Calif.) for double-positive cells expressing mCherry and GFP then returned to RPMI1640 for subsequent experiments.
(§2) Cell proliferation was assessed using the CellTiter 96® AQueous One Solution Cell Proliferation Assay (MTS assay, Promega) according to manufacturer instructions. Briefly, 5,000 viable cells were added to a single well in 96-well plate in 100 μL RPMI1640. Three independent samples were seeded in duplicate for each time point. […] In some experiments, cell proliferation was assessed using a Neubauer chamber and trypan blue dye exclusion.
(§3) Stable Ba/F3 cells transduced with native (p210) BCR-ABL1, the kinase domain mutants BCR-ABL1T315I, BCR-ABL1E255V, or the compound mutant BCR-ABL1E255V/T315I were cultured. […]
(§4) Cell proliferation was assessed using a […] viability assay (MTS assay) utilizing CellTiter 96® AQueous One Solution Cell Proliferation Assay (Promega) according to manufacturer instructions. […] Cell growth was assessed by MTS assay at 72 and 96 h. […] In patient sample experiments, cell proliferation was assessed by trypan blue exclusion.
In general terms: Tetrazolium assays rely on reduction of a dye to a coloured formazan, in cell work by metabolically active cells.

The next series deals with T1, mCherry-tagged Bcr-Abl (Homo sapiens, UniProt P00519+P11274).
T1 construct: expressed in transfected cells; host or cells: Cos-7
T1 sequence (P11274 1-72 limits assumed): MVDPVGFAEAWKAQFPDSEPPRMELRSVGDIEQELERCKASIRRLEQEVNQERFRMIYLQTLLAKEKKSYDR
Put plainly: Colocalization analysis in Cos-7 cells. The series is classed as cell-based. As to conditions: EGFP-tagged CC^mut3 co-transfected with mCherry-tagged Bcr-Abl. The method, then: Next, the ability of CC^mut3 to bind to BCR-ABL in live cells was analyzed (FIG. 8B). Colocalization analysis was performed by co-transfecting mCherry-tagged Bcr-Abl and EGFP-tagged CC^mut3 into Cos-7 cells.

Series [2] concerns Ba/F3 cells expressing BCR-ABL1E255V/T315I. Put plainly: Annexin V/7-AAD apoptosis assay in Ba/F3 BCR-ABL1 E255V/T315I cells. The series is classed as cell-based, mouse. As to conditions: 72 h, CCmut3 vs EV. On the procedure: (§5) For analysis of apoptosis and cell death, cells were pelleted and resuspended in Annexin V-binding buffer (BD Biosciences), stained with anti-Annexin V-APC (BD Biosciences or Life Technologies) and 7-AAD (BD Biosciences or Life Technologies) and analyzed on a BD FACSCanto flow cytometer. In addition to the APC and 7-AAD channels, GFP- and mCherry-positive cells were also recorded.
(§6) For analysis of apoptosis and necrotic cell death, cells were pelleted and resuspended in Annexin V-binding buffer (BD Biosciences), stained with anti-Annexin V-APC and 7-AAD (BD Biosciences or Life Technologies) and analyzed on a BD FACSCanto flow cytometer. In addition to the APC and 7-AAD channels, GFP- and mCherry-positive cells were also recorded.

The subject of a further series is parental Ba/F3 cells. Nature of the series: Proliferation of transfected parental Ba/F3 cells (MTS assay). As to conditions: for proliferation of parental Ba/F3 cells: MTS assay at 72 and 96 h, CCmut3 vs EV. It counts as cell-based, mouse. The method, then:
as §1, §2, §3, §4

The test system of a further series is Ba/F3-p210-T315I cells. Nature of the series: Annexin V/7-AAD apoptosis assay in Ba/F3 BCR-ABL1 T315I cells. It counts as cell-based, mouse. As to conditions: 72 h, CCmut3 vs EV. On the procedure:
Assays were run in triplicate (n=3).
as §5, §6

Series [3] relates to CML CD34+ cells expressing BCR-ABL1T315I. Put plainly: Liquid culture of primary T315I CML cells. It counts as cell-based, human. As to conditions: CC^mut3 or increasing concentrations of ponatinib (FIG. 28C). On the procedure:
as §2

Series [4] deals with Ba/F3 cells expressing BCR-ABL1E255V. Nature of the series: Proliferation of transfected Ba/F3 BCR-ABL1 E255V cells (MTS assay). The series is classed as cell-based, mouse. As to conditions: CCmut3 vs EV; for proliferation, in words: MTS assay at 72 and 96 h. The method, then: as §1, §2, §3, §4
Another series deals with K562 cells. Nature of the series: 7-AAD and Annexin V staining of protein-treated K562 cells. It counts as cell-based, human. As to conditions: proteins 30 μM, imatinib 2.5 μM; 48 and 72 hours after treatment. On the procedure: 0.5 μL of 1 mM 7-AAD (Invitrogen) was added to each sample, followed by a 45 minute incubation on ice. […] Analysis was performed using the FACS Canto-II (BD BioSciences, University of Utah Core Facility) with FACS Diva software. 7-AAD and APC were excited at 488 and 635 nm wavelengths, and emissions were detected at 660 nm. Percentage of apoptosis/necrosis was calculated by the percentage of cells that stained positive for 7-AAD and/or APC. Independent treatments were tested three times (n=3).

B1: CCmut3: modified Bcr-Abl coiled-coil domain (residues 1-72) with mutations C38A, K39E, S41R, L45D, E48R, Q60E (protein)
chain: T1 sequence (P11274 1-72 limits assumed) with C38A, K39E, S41R, L45D, E48R, Q60E
Regarding B1, the reduction of proliferation was > 2 fold in series [1]; “more than 2 fold” in series [1] (listed as CC^mut3); “approximately 3 fold” in series [4] (96 h, MTS assay). For the same molecule, the “proliferation, in words” value in series [1] is reported as “significantly reduced proliferation at 96 h”; in series [4] it was “significant reduction of proliferative capacity; also recorded: lesser, yet significant difference was noted at the 72 h time point”; in series [4] (listed as CC^mut3), “significant reduction”. In the series with mCherry-tagged Bcr-Abl, the “intracellular colocalization with BCR-ABL (Costes' coefficient)” value is given as “intracellular colocalization”. Further, the “apoptosis, in words” value is given as “Enhanced apoptosis; also recorded: effectively induced apoptosis” in series [2], “significantly more apoptotic; also recorded: sensitive” in series [2] (listed as CC^mut3), “increase of apoptosis” in the series with Ba/F3-p210-T315I cells and “significant shift toward the apoptotic fraction” in the series on Ba/F3-p210-T315I cells (listed as CC^mut3). For the same molecule, the “proliferation of parental Ba/F3 cells” value in the series with parental Ba/F3 cells and with parental Ba/F3 cells (listed as CC^mut3) was “not affected; also recorded: No difference” each time. For the same molecule, the “toxicity in BCR-ABL1-negative cells” value in the series with parental Ba/F3 cells (parental Ba/F3 cells, FIGS. 38a, c, e (proliferation, apoptosis, colony formation)) is “no measurable toxicity”. Besides, the increase in apoptosis is 6-8 fold and > 5 fold in the series on Ba/F3-p210-T315I cells; 6-8 fold with Ba/F3-p210-T315I cells (listed as CC^mut3). Further, the “effect in liquid culture” value in series [3] is recorded as “no effect”. Also, the “induction of apoptosis/necrosis (7-AAD and/or Annexin V positive cells)” value in the series with K562 cells is reported as “did not induce apoptosis”.
